Measured values published in US20180207294A1, “NON-ALCOHOLIC FATTY LIVER REGULATING FACTOR 14-3-3 PROTEIN” (Korea University Research and Business Foundation, priority 2015, published 2018).

Columns and labels:
PPARγ2 = biological target: T1, PPARγ2 (Homo sapiens, UniProt P37231); test: aP2 promoter luciferase assay of PPARγ2 transcriptional activity in HEK-293T cells; assay type: cell-based
T1 construct: host or cells: HEK-293T
T1 sequence (P37231 1-505): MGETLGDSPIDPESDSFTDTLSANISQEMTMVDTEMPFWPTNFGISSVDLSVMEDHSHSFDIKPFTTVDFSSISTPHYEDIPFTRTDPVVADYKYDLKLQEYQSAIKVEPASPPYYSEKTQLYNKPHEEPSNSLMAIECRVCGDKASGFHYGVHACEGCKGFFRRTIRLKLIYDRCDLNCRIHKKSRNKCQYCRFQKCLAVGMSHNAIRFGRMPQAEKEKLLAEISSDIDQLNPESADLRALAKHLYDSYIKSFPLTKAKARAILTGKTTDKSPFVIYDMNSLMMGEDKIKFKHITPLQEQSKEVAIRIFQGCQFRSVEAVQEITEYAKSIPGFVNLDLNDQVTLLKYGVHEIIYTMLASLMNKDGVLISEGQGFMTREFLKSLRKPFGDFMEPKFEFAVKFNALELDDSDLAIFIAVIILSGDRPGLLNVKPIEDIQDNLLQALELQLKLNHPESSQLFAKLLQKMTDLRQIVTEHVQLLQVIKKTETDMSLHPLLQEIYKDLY
Experimental: The transcriptional activity of PPARγ2 plays a vital role in expression of liver diseases-associated proteins. Thus, the transcriptional activity of PPARγ2 was measured using an aP2 promoter regulated by PPARγ2, and the role of 7 types of 14-3-3 proteins was investigated.
For this, HEK-293T cells were seeded in a 12-well plate at a density of 1×10^5 cells per each well, and then transfected with an aP2 promoter construct (0.5 μg) and 14-3-3 isoform proteins (α, β, γ, ε, ζ, π, θ) (0.5 μg) or si-14-3-3β and si-14-3-3γ siRNA (5 nM and 10 nM, Santa Cruz) using an E-fection plus reagent (Lugen). A ratio of DNA to the E-fection plus reagent was 1:2, and this method was performed according to a manufacturer's manual. After transfection, the corresponding cells were treated with 10 μM of pioglitazone (Pio, Santa Cruz) for 24 hours, washed with ice-cold PBS, and lysed using 80 μl/well of a reporter lysis buffer (Promega, Madison, Wis.), and the lysed cells were centrifuged at 10,000×g and 4° C. for 10 minutes to collect a supernatant, and luciferase activity was measured. As an instrument, Luminometer 20/20n (Turner Biosystems, Sunnyvale, Calif.) was used. For normalization, the cells were cotransfected with pSV40-β-galactosidase. For the collected supernatant, β-galactosidase activity was measured and the luciferase activity was revised, and the obtained values were plotted. At this time, a β-galactosidase enzyme analysis system (Promega, Madison, Wis.) was used, and analysis was performed using a DU530 spectrophotometer (Beckman Instruments, Palo Alto, Calif.).

PPAR-RXR complex = biological target: T2, PPAR-RXR complex (Homo sapiens, UniProt P37231); test: Formation of PPAR-RXR complex under 14-3-3 overexpression; assay type: binding; settings: overexpression of 14-3-3β and 14-3-3γ; FIG. 8C
T2 sequence (P37231 1-505): T1 sequence (P37231 1-505)
T2 sequence (P19793 1-462 partner): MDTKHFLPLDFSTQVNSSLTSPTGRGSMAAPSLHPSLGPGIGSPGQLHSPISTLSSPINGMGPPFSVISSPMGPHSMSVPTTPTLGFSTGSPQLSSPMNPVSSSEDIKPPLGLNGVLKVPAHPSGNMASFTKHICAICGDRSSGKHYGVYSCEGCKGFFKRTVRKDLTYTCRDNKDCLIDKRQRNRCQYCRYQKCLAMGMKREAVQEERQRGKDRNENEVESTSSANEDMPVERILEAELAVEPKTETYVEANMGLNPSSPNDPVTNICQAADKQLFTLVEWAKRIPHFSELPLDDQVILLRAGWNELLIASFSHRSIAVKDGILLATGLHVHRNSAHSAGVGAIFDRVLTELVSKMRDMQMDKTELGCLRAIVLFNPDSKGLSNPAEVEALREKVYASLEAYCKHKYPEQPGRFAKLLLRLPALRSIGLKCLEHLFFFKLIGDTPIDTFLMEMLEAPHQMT

PPARγ2 deletion mutants = biological target: T3, PPARγ2 deletion mutants (Homo sapiens, UniProt P37231); test: GST-pull down assay with PPARγ2 deletion mutants (HEK-293T); assay type: binding; settings: FIG. 3B, 3C
T3 construct: expressed in transfected cells; host or cells: HEK-293T
T3 sequence (P37231 1-310): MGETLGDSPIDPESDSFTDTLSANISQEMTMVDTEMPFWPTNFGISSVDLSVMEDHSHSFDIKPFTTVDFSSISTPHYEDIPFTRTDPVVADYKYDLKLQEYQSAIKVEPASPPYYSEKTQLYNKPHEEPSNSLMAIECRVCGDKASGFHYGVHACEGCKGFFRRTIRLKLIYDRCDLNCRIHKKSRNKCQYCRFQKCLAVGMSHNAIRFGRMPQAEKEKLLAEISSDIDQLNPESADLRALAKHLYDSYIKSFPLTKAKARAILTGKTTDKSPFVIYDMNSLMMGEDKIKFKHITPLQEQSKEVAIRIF
Experimental: The PPARγ2 protein has been reported to consist of an activation function 1 (AF-1, amino acids 1-138) domain, a DNA-binding domain (DBD, amino acids 139-203), a hinge region (amino acids 204-310), and an activation function 2 (AF-2, amino acids 311-505) domain (see FIG. 3A). Thus, GST-pull down assay was conducted to verify which domain part of PPARγ2 was bound to 14-3-3β and 14-3-3γ.
HEK-293T cells were seeded in a 100 mm plate at a density of 2×10^6 cells per each well, and then transfected with Flag-PPARγ2 (1-505) DNA (4 μg), Flag-PPARγ2 (1-310) DNA (4 μg), Flag-PPARγ2 (139-505) DNA (4 μg), and mGST-14-3-3β (4 μg) or mGST-14-3-3γ (4 μg) using an E-fection plus reagent (Lugen). For Flag-PPARγ2 (1-310) DNA and Flag-PPARγ2 (139-505) DNA, DNA fragments amplified through polymerase chain reaction (PCR) were cloned into a pCMV-3Tag-1 vector using restriction enzymes Xhol and Apal. A ratio of DNA to the E-fection plus reagent was 1:2, and this method was performed according to a manufacturer's manual. The corresponding cells were washed with ice-cold PBS and lysed using 500 μl/well of a lysis buffer (150 mM NaCl, 1 mM EDTA, 1% Nonidet P-40, 5% glycerol, 25 mM tris-HCl, pH 7.5, protease inhibitor added), and the lysed cells were centrifuged at 10,000×g and 4° C. for 10 minutes to extract proteins. Thereafter, 1,000 μg of the proteins was reacted with 20 μl of glutathione Sepharose 4B beads (GE Healthcare, Buckinghamshire, UK) for 6 hours, and then washing of the beads with 1 ml of ice-cold PBS was repeated 5 times, and the beads were boiled at 100° C. for 10 minutes, followed by 10% SDS-PAGE gel separation and western blotting. A ratio of GST antibodies (Santa Cruz) to Flag antibodies (Santa Cruz) was 1:3000. The detection of each protein was performed using West Pico ECL (Thermo scientific, Rockford, Ill.) and identified in a darkroom.

[1] = 14-3-3β / 14-3-3γ overexpressed according to concentration, FIG. 1B, 1C
[2] = overexpression of 14-3-3 isoform proteins (0.5 μg), 10 μM pioglitazone 24 hours, FIG. 1A

Row | binding to PPARγ2 deletion mutant (1-310) (PPARγ2 deletion mutants) | Substance | transcriptional activity of PPARγ2 (activity of the aP2 promoter) (PPARγ2; [1]) | transcriptional activity of PPARγ2 (activity of the aP2 promoter) (PPARγ2; [2]) | formation of the PPAR-RXR complex (PPAR-RXR complex)
1 | bound | 14-3-3β: 14-3-3 isoform protein, overexpressed by DNA transfection; regulating factor that increases transcriptional activity of PPARγ2 | increased the transcriptional activity of PPARγ2 in a concentration-dependent manner | increased the transcriptional activity of PPARγ2 | did not affect the formation of the PPAR-RXR complex
2 | bound | 14-3-3γ: 14-3-3 isoform protein, overexpressed by DNA transfection; regulating factor that decreases transcriptional activity of PPARγ2 | reduced the transcriptional activity of PPARγ2 in a concentration-dependent manner | decreased the transcriptional activity of PPARγ2 | did not affect the formation of the PPAR-RXR complex
